First the molecules themselves.
B1: 26S proteasome non-ATPase regulatory subunit 10 (Mus musculus), Q9Z2X2 (parent)
chain: MEGCVSNIMICNLAYSGKLDELKERILADKSLATRTDQDSRTALHWACSAGHTEIVEFLLQLGVPVNDKDDAGWSPLHIAASAGRDEIVKALLVKGAHVNAVNQNGCTPLHYAASKNRHEIAVMLLEGGANPDAKDHYDATAMHRAAAKGNLKMVHILLFYKASTNIQDTEGNTPLHLACDEERVEEAKFLVTQGASIYIENKEEKTPLQVAKGGLGLILKRLAESEEASM
partner: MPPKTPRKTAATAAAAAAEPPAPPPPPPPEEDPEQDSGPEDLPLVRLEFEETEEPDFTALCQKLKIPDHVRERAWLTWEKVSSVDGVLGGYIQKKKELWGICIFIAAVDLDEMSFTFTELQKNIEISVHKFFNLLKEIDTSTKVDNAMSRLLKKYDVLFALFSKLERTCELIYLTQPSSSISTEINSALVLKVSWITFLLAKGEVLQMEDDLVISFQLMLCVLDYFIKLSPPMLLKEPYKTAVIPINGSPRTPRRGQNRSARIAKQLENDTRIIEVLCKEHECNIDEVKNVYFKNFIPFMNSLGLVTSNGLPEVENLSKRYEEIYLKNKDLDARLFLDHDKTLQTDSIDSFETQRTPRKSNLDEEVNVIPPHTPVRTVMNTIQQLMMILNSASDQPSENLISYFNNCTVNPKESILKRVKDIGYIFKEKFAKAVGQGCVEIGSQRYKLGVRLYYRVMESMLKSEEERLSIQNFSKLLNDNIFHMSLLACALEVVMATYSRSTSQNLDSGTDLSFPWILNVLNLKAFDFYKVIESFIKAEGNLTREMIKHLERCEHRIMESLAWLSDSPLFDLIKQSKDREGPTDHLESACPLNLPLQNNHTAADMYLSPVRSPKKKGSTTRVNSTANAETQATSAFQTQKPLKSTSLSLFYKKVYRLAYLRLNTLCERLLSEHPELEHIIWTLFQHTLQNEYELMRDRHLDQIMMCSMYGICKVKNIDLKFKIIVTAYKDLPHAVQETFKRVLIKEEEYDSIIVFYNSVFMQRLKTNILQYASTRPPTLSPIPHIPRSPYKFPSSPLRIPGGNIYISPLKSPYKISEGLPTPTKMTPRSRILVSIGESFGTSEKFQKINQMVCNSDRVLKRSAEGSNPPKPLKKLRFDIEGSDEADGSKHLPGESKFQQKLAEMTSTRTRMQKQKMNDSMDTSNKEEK

The source of these data is IntAct's records for PubMed 17292836.

The test covers variants of B1. The following applies: with rb_human RB1, P06400.
Regarding E182A, the “effect of a mutation on the interaction” value was “disrupting interaction”.
